In publication PMC12594171, “DKK3-LRP1 complex and a chemical inhibitor regulate Aβ clearance in models of Alzheimer’s disease” (Science Advances, 2025) one finds percent reduction of Aβ42 binding to mLRPIV data, which are given here for one molecule.

The target in the assay is mLRPIV-HA, stably expressed in SH-SY5Y. The experiment in a line: co-IP + ELISA; SH-SY5Y cells stably expressing mLRPIV-HA incubated with Aβ42 and 1 to 200 nM DKK1 or DKK3; mLRPIV-HA precipitated with anti-HA affinity gel; Aβ42 in the eluate by ELISA. Background: An ELISA detects its analyte on a solid surface through an enzyme-linked reagent.

B1: DKK1-Flag (ligand)
chain: TLNSVLNSNAIKNLPPPLGGAAGHPGSAVSAAPGILYPGGNKYQTIDNYQPYPCAEDEECGTDEYCASPTRGGDAGVQICLACRKRRKRCMRHAMCCPGNYCKNGICVSSDQNHFRGEIEETITESFGNDHSTLDGYSRRTTLSSKMYHTKGQEGSVCLRSSDCASGLCCARHFWSKICKPVLKEGQVCTKHRRKGSHGLEIFQRCYCGEGLSCRIQKDHHQASNSSRLHTCQRH
In the case of B1, the percent reduction of Aβ42 binding to mLRPIV at 20 nM DKK1 worked out at 44%.
